This passage reports binding signal (fold higher affinity than for TAR-1) results from US6284456.

In this data set the test system is HIV-1 Tat Tat-1 delta1-47 (Human immunodeficiency virus 1 (HXB2)). Briefly: EMSA. Particulars: truncated Tat-1 (construct assumed delta1-47).

HIV-2 TAR-2 RNA wt (+1 to +123) returned a binding signal (fold higher affinity than for TAR-1) of 4.
